{"source": "patent US5380646A", "about": "“Thrombus detection using radiolabelled disintegrins” (Temple University of the Commonwealth System of Higher …, priority 1992, dated 1995)", "origin": "cited, not measured here", "molecules": {"B1": {"name": "tissue plasminogen activator: plasminogen activator (protein, UniProt P00750 36-562, looked up)", "Tissue-type plasminogen …": "SYQVICRDEKTQMIYQQHQSWLRPVLRSNRVEYCWCNSGRAQCHSVPVKSCSEPRCFNGGTCQQALYFSDFVCQCPEGFAGKCCEIDTRATCYEDQGISYRGTWSTAESGAECTNWNSSALAQKPYSGRRPDAIRLGLGNHNYCRNPDRDSKPWCYVFKAGKYSSEFCSTPACSEGNSDCYFGNGSAYRGTHSLTESGASCLPWNSMILIGKVYTAQNPSAQALGLGKHNYCRNPDGDAKPWCHVLKNRRLTWEYCDVPSCSTCGLRQYSQPQFRIKGGLFADIASHPWQAAIFAKHRRSPGERFLCGGILISSCWILSAAHCFQERFPPHHLTVILGRTYRVVPGEEEQKFEVEKYIVHKEFDDDTYDNDIALLQLKSDSSRCAQESSVVRTVCLPPADLQLPDWTECELSGYGKHEALSPFYSERLKEAHVRLYPSSRCTSQHLLNRTVTDNMLCAGDTRSGGPQANLHDACQGDSGGPLVCLNDGRMTLVGIISWGLGCGQKDVPGVYTKVTNYLDWIRDNMRP"}}, "system": "thrombi", "conditions": "literature, in words"}
{"molecule": "B1", "values": [{"measurement": "ability to image or detect thrombi", "value": "only with marginal success"}]}
